# Test system: MS2 coat protein
# Experiment: apparent KD of MS2 coat protein; designed switch direction (-1 OFF switch, 1 ON switch): -1; higher = weaker reporter binding
# How it was run: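 The buffer was Tris-HCl pH 7.5 with KCl, MgCl2, BSA, DTT, tRNA and Tween-20. In it, SNAP-549-labelled MS2 coat protein was titrated in doubling steps from 0.7 or 1.5 nM to 3 µM over chip-bound RNA switches transcribed by stalled E. coli RNA polymerase on Illumina chips. Apparent KD is the per-design median over clusters of curve fits to normalised fluorescence.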
# [1] = input ligand: microRNA oligo, concentration not stated
# [2] = Eterna round: R95, input ligand: microRNA oligo, concentration not stated
# [3] = Eterna round: R95, input ligand: FMN 200 uM
# [4] = Eterna round: R95, input ligand: none
Sequence,apparent KD of MS2 coat protein (input ligand: FMN 200 uM),apparent KD of MS2 coat protein [1],apparent KD of MS2 coat protein (input ligand: none),apparent KD of MS2 coat protein [2],also measured
"UUGUUAUAUGUAGGAUAUGCAUGUUAUUAUUAUGCAGAAGGACAUGAGGAUCACCCAUGUGUAUUAUUAUUAUAUAUUAUAUAU [Title] (Eterna round: R96, puzzle: Exclusion NG 1)",21.2 nM,14.1 nM,20.1 nM,,
"UUGUUAUGUGUAGGAUAUGCAUAUUAUUAUUAUGCAGAAGGACAUGAGGAUCACCCAUGUGUAUUAUUAUUAUAUAUUAUAUAU [Title] (Eterna round: R96, puzzle: Exclusion NG 1)",,17.2 nM,,,
"UUGUUGUAUGUAGGAUAUGCAUAUUAUUAUUAUGCAGAAGGACAUGAGGAUCACCCAUGUAUGUUAUUAUUAUAUGUUAUAUGU [Title] (Eterna round: R96, puzzle: Exclusion NG 1)",,25.6 nM,,,
"UUGUUGUAUGUAGGAUAUGCAUAUUAUUAUUGUGCAGAAGGACAUGAGGAUCACCCAUGUAUAUUAUUAUUAUAUAUUAUAUAU [Title] (Eterna round: R96, puzzle: Exclusion NG 1)",,27.2 nM,,,
"UUGUUGUAUGUAGGAUAUGCGUAUUAUUAUUAUGCAGAAGGACAUGAGGAUCACCCAUGUAUAUUAUUAUUAUAUAUUAUAUAU [Title] (Eterna round: R96, puzzle: Exclusion NG 1)",,22 nM,,,
"UUGUUUGUAGUGAGGAUAUCGUUGAGGAAGAGGAUCGAGAAGGCACAUGAGGAUCACCCAUGUUAGAUGUGGUU [JR_BMOE4_Sub082] (Eterna round: R96, puzzle: Brourd's mod of Exclusion 4)",261 nM,114 nM,161 nM,,
UUGUUUGUAGUGAGGAUAUCGUUGAGGAAGAGGAUCGAGAAGGCACAUGAGGAUCACCCAUGUUAGAUGUGGUU [JR_BMOE4_Sub082] (puzzle: Brourd's mod of Exclusion 4),,,,99.1 nM,
"UUUAAUUUUUUUUUUUUACAAGCUUUUUGCUCGUCUUAUACAUGAGGAUCACCCAUGUGAGUGGGAGGUAAAUUAUC [JMF 77] (puzzle: Sensor v3, turn-off variant 2)",,,,276 nM,apparent KD of MS2 coat protein [3]: 57.7 nM; apparent KD of MS2 coat protein [4]: 70 nM
"UUUAAUUUUUUUUUUUUACAAGCUUUUUGCUCGUCUUAUACAUGAGGAUCACCCAUGUGGAUGGGAGGUAAAUUAUC [JMF 74] (puzzle: Sensor v3, turn-off variant 2)",,,,153 nM,apparent KD of MS2 coat protein [3]: 25.4 nM; apparent KD of MS2 coat protein [4]: 25.3 nM
"UUUAAUUUUUUUUUUUUACAAGCUUUUUGCUCGUCUUAUACAUGAGGAUCACCCAUGUGGGUGAGAGAUAAAUUAUC [JMF 14] (puzzle: Sensor v3, turn-off variant 2)",,,,17 nM,apparent KD of MS2 coat protein [3]: 53.2 nM; apparent KD of MS2 coat protein [4]: 64.2 nM
"UUUACAAGCUAAAGAUCCCACAUGAGGAUCACCCAUGUUCCUGGCCGUGAGGCUAGGUAAACUUUUGCUCGUCUUAU [JL TOV1 3.67] (Eterna round: R97, puzzle: Sensor, turn-off variant 1)",252 nM,,322 nM,,
"UUUACAAGCUAUUGAUCCCACAUGAGGAUCACCCAUGUUCCUGGCCGUGAGGCUAGGUAAACAAUAGCUCGUCUUAU [Sensor-V1 #41] (Eterna round: R97, puzzle: Sensor, turn-off variant 1)",98.4 nM,,95.1 nM,,
"UUUAGUUCAGGAUAUGUAGAUUUUAACAUGAGGAUCACCCAUGUCGAUCCUGAAUUAACUACAGAAGGGAACAUUU [Mod of Brourd 4 - Jieux - Exclusion 5] (Eterna round: R97, puzzle: Exclusion 5)",64 nM,,18.8 nM,,
"UUUAGUUUAGGAUAUGUAGAUUUUAACAUGAGGAUCACCCAUGUAGAUCCUGAAUUAACUACAGAAGGGAGCAUUU [Mod of Brourd 15 - Jieux - Exclusion 5] (Eterna round: R97, puzzle: Exclusion 5)",70.5 nM,,68.2 nM,,
"UUUAUAUAUGAAGGAUAUACUUAACAUGAGGAUCACCCAUGUGGUGUUGUGAGUGAGUGAGUUUAGUAGAAGGUCAAUUAUUUU [JMF's solution 27] (Eterna round: R96, puzzle: Exclusion NG 2)",594 nM,237 nM,310 nM,,
UUUAUGUCAGGAUAUGAGUCGUAGAACAAUAGUACUACGUCUCAGAAGGGACAUGAGGAUCACCCAUGUGCCUC [Fiskers Ex 4 Super Stable 44 mod 26] (puzzle: Exclusion 4),,,,35.7 nM,
"UUUAUUAAUUAAUAUAAUAAGAUCACAUGAGGAUCACCCAUGUAGGAUAUCAGCUCGAUUAGAGCUGAGAAGGACAUAAUUAUA [ExNG3/1-B1] (Eterna round: R96, puzzle: Exclusion NG 3)",,29.2 nM,,,
"UUUAUUAAUUAAUAUAAUAAGAUCACAUGAGGAUCACCCAUGUAGGAUAUCAGCUCGUGUAGAGCUGAGAAGGACAUAAUUAUA [ExNG3/1-B3] (Eterna round: R96, puzzle: Exclusion NG 3)",108 nM,27 nM,34.3 nM,,
"UUUCCCUGGCAAGGAUAUCCUGUGCGGUUCCGGCUCGUGUCUGUUACAUGAGGAUCACCCAUGUGGGAGAAGGUGCCUGUGGCU [Design 91] (Eterna round: R96, puzzle: Exclusion NG 2)",,47.4 nM,,,

Sequence,apparent KD of MS2 coat protein (input ligand: FMN 200 uM),apparent KD of MS2 coat protein [1],apparent KD of MS2 coat protein (input ligand: none),apparent KD of MS2 coat protein [2],also measured
"UUUCGGCAUGUAGGAUAUGGAUCCGAUUAGGAUUUAGAAGGACAUGAGGAUCACCCAUGUGCAUUUAAUUAGUCAUUACCGUUU [EXclNG1-LROPPY07] (Eterna round: R96, puzzle: Exclusion NG 1)",79.9 nM,42.8 nM,67.1 nM,,
"UUUGAAUAGGUAGGAUAUACUUUCAAUUUUCUUUUCCUUACAUGAGGAUCACCCAUGUUUACAUUGUAGAAGGACCUCAUUGAU [JR_ExcNG2_Sub048] (Eterna round: R96, puzzle: Exclusion NG 2)",,193 nM,,,
"UUUGCAAGCUUAAGAUCCCACAUGAGGAUCACCCAUGUUGCUGCCGUGAGGUAGCAUUUAACUUAUGCUCGUCUUAU [JL TOV1 3.50] (Eterna round: R97, puzzle: Sensor, turn-off variant 1)",140 nM,,176 nM,,
UUUGUCUGUGUGAGGAUAUACUUUGUUUGGUCGUUGUAGAAGGCACAUGAGGAUCACCCAUGUAUUUUGUUGUG [JR_BME4_Sub015] (puzzle: Brourd's mod of Exclusion 4),,,,26.9 nM,
UUUGUCUGUGUGAGGAUAUACUUUUUUUGGUUUUUGUAGAAGGCACAUGAGGAUCACCCAUGUAUUUUGUUGUG [JR_BME4_Sub016] (puzzle: Brourd's mod of Exclusion 4),,,,31.1 nM,
UUUGUUGUUGUGAGGAUAUCGUUGUUAUUUUGAAACGAGAAGGCACAUGAGGAUCACCCAUGUUUGUUGAUGGU [JR_BMOE4_Sub060] (puzzle: Brourd's mod of Exclusion 4),,,,41.5 nM,
"UUUGUUUAUGUAGGAUAUGCCUGGCGUGCCUUCGCAGAAGGACAUGAGGAUCACCCAUGUAUUGCGGUCUGCGUUCAGAUCGCU [salish99_ExNG1_r4_030] (Eterna round: R96, puzzle: Exclusion NG 1)",46.8 nM,29.1 nM,41.8 nM,,
UUUGUUUAUGUGAGGAUAUACUGUUUGUUUUGUUUGUAGAAGGUACAUGAGGAUCACCCAUGUUUUGUAUUUAU [JR_BME4_Sub034] (puzzle: Brourd's mod of Exclusion 4),,,,18.4 nM,
"UUUGUUUUGCAAGGAUAUGUUUAAUUUUAUUUUCCUUACACAUGAGGAUCACCCAUGUUAUUCUUACAGAAGGUGCGUAAUUUG [Excl-NG2-LRO05] (Eterna round: R96, puzzle: Exclusion NG 2)",,171 nM,,,
"UUUUAAAAGCUGAGAUCCUACAUGAGGAUCACCCAUGUGGUCCGGAAAAUUUUGUCACCGGAUUUUGCUCGUCUUGU [salish99_S_TOV1_R5_103] (Eterna round: R97, puzzle: Sensor, turn-off variant 1)",102 nM,,114 nM,,
"UUUUAACAAGCGAGAUCCUACAUGAGGAUCACCCAUGUAGACCAUGGUUUCCAUGGUCUUUUUGCUCGUCUUGUGUG [jl TITIN mod 6] (Eterna round: R97, puzzle: Sensor, turn-off variant 1)",22.5 nM,,23.3 nM,,
UUUUAACAUGAGGAUCACCCAUGUCAGGAUAUGGUAUUUUUUUUUUUUUUUUUUUUUUCCAGAAGGGACAUUUU [My solution] (puzzle: Exclusion 1),,,,11.3 nM,apparent KD of MS2 coat protein [3]: 16.5 nM; apparent KD of MS2 coat protein [4]: 15.9 nM
UUUUAACAUGAGGAUCACCCAUGUGAGGAUAUCGAAAUUUAUAUUAAUAUUAAUAAAACGAGAAGGCACAUUUU [JMF 4] (puzzle: Exclusion 1),,,,75.1 nM,
UUUUAACAUGAGGAUCACCCAUGUGAGGAUAUCGAAAUUUAUAUUAAUAUUUAUUAAACGAGAAGGCACAUUUU [JMF 59] (puzzle: Exclusion 1),,,,82 nM,
UUUUAACAUGAGGAUCACCCAUGUGAGGAUAUCGAAAUUUAUAUUAAUAUUUAUUUUACGAGAAGGCACAUUUU [JMF 66] (puzzle: Exclusion 1),,,,104 nM,
UUUUAACAUGAGGAUCACCCAUGUGAGGAUAUCGAAAUUUAUAUUAAUAUUUUUAAAACGAGAAGGCACAUUUU [JMF 67] (puzzle: Exclusion 1),,,,53.5 nM,
UUUUAACAUGAGGAUCACCCAUGUGAGGAUAUCGAAAUUUAUAUUAAUAUUUUUAUAUCGAGAAGGCACAUUUU [JMF 72] (puzzle: Exclusion 1),,,,84.7 nM,
UUUUAACAUGAGGAUCACCCAUGUGAGGAUAUCGAAAUUUAUAUUUAUAUUAAUAAUUCGAGAAGGCACAUUUU [JMF 77] (puzzle: Exclusion 1),,,,155 nM,
